Measurements reported in the domain aggregation screens of Martell et al. (2025).

Assay: soluble fraction after stress (log2 fold change); higher = more stays soluble; pooled small domains, quantitative proteomics
Conditions: stress: 75 degC
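Note: 20 min heating vs room temperature control held 20 min.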

Sequence | soluble fraction (log2)
HMEMTEDEITKQFDAMEREAKKEIDTGADKRAFMYGVSRTAAGMAGKNPKYARFITDKAKEVIENIAKYK | 0.298
HMENAEALLKKLSGVLSDYEYKMLMLYADGKTPRRIAQETGQSAKSVSNALFRARTKLKELYEDQ | -0.66
HMENEIVMPVQINGKKRGDLTIARDADQASIQKAVLELDFVKAALNGGSPKKVIVVPQRIVNVV | 0.338
HMENFKVFMKAVQEVSPVPVRFDEISSGAKGYYSNTEKEIVIQNGMSESQTMKTGIHEVTHAMLHDRDF | 0.234
HMENFYGYEIINPEAKKFFITMGVNRYALEQWIKNKSEYGLIIVKSLYPFDPRLKLFLEKNRERIQNLIF | -0.526
HMENKLIELTLSLDKSERLDKILTQELSHTRSVIQQWLKSGFVSVNGEIVKANYKAKDGDHVTIQIE | -0.594
HMENKTGEVTVREDSALTLRQGPGTNYEKVGQAYRGDRVDVLEEQNGWYKVKTYDGKEAWASSSYISIV | 0.861
HMENMETSDIVARYSNMPGGIIEAFHEIVDRHGFLSQEAIIEAARGFGISVAEAYGVATFYSMFS | -0.342
HMENMRLILASNLRRIREERRLSLNKVSELTGVSKSMLGQIERGESNPTLQTVWKIANGLRVSLTDLTEVP | -2.66
HMENRILLSEDSLKHLAQDIPIDIIEKLSVLKDQIYHRYDDFNSIVQGLLGGENYLKYKDNILSFVEQ | 0.424
HMENSMDTDWDVSGVDPSQYRLLFSTLGAIAGVKDVGLNPDGLKIIHTPEALPAIKQAFDANNLKLKMRTN | -0.0945
HMENSPLTHREAEVMRLMSEGKSNRAISEHLVISEKTVKNHVSSILQKMSVDDRTQAVLQAIKNGWVD | 0.281
HMENTGFKDKKGNYIFDGDIVKDILGNIMKVEFKHFKWQLIPLNKTAFNMPMVDWLDLETETLNAEIIGN | -2.07
HMENTIESLLKAKGFNDIIVTVSDKQVDVVVSDKEIADNKRAQIEDVIKRKTGLEASAITITPA | 0.127
HMENVLFVNVLSMTVRELAEMMKIPVNKIIQDSFSKGIMMNPNQRLEYDNFAELAKKYGITVKI | -1.24
HMENVMLRNFAIQATEAGVIKLLEDQRTFVWGSNNKKFMTVPFDEHPYSAMAAFFKTDEGLEIYKSIEKKF | -1.97
HMENYQIETFVKFIEESTGEDGVAFEDLFQNFTSRPAVITMFLALLEALRRNSIRIFQKEEFSQILIYPK | -0.0302
HMENYTYKYATSANVNIREEPNTDSTILGKTLLNTEFQVVEDVDGWSKITTEAGYAYIKSEYLSDTE | 0.502
HMEPDEQAVKALIAEIDKLSKEKLTLKHEKKLKELREIYDDFTEEEKKLVTNYDILVKMEKRMEVLKKQEG | 0.127
HMEPDEYTVRQAFMKFDVGGEGRVPRDKLKALLETLGLELSAQQVRESEEQLDPEGTGFTSYGDFLMWWN | -0.793
HMEPEVSNTYEKVLGMHHFSSTRSHQLHDLVRQANALELSLGEIESIAQSAKDGAQVISDIKHWMEPNRQ | 0.381
HMEPEWVINTDGSNLNEILAIDEVDSRKTFSNDLQEVYRTFGIEAARQILVQEIDAVIESSGA | 0.082
HMEPFEQLLDRITSQTGKEPEEVVARMNELITERFDGNIRPEAALVIVAKRDNIQFMDLLDQLKQALL | -0.427

Sequence | soluble fraction (log2)
HMEPIAFDNMHNRGIKGTNDWTQYEITLPFSAEAKKIFVAGLLVGKGKAWFDKFEVFLDGKNITDVAQI | 0.0509
HMEPPPSYSALLKQISSGKVKELQLVPARREVIVTYPDGRSATVAILANDQQILRTAEAAGTPLLVK | 0.189
HMEPQLVKSFDVQTELTYDQFLSKYPESHTLGRLLVQPEPIPFEPYKNIPGITPEKLLALHAKHLEAR | 0.107
HMEPQSRTAYRLIEAMIVTHELPPGSRISEASLSAKLGIGRTPIREALQRLSFEGTVKIVPRSGAFVSEI | -2.78
HMEPREALDGLISERGETYASISRLLGRNSAYIQQFIKRGSPARLDQSDIALLALHFDVPVEMLGGKE | -0.588
HMEPTIGTATVTSGSRLNMRSAKSTSASVVTRIPSGATVGVISYASDWSKVTYNGYTGYVSSPYISMNG | -1.19
HMEPVIELGDRTLPIEITRHRRARRLTLRLAADGSAVRITLPHWARSAEATAFAHARRDWLAAQLAK | 0.181
HMEPVTETVYAMDTVNIRAAADQTSEKIGSVTVGTALTRTGTDGDWSIIDYNGTTGYVKSEFLSNTAPEV | 0.253
HMEQLIIQEELSGKRLDQLVSLLFPSLTRAHAQKLIKEGAVLVNEKPRKPAYAVMTGELLTVELPEPE | -0.167
HMEQNHYEVLGVSRDAIPEEIRKAYFEYARKLHPDANPDPGAAEQFMRIQTAYDVLSNPDRRHEYDGLLPP | 0.00418
HMEQRREEFILLAKELLEKELRKQNLEVHENLKPDVLNDVAKRLGMVSMDDLLAAVGDGKITPGTVVSKIV | -0.0625
HMEQVLNVAVRRGELIMSSAAEQTVRIYSSAGSMVWQGKVSASDVTVELPSGVYVVNGKKVV | -1.25
HMEQYFEDEELNDKFLEFLAMRKRVRKPVQTDRGMKMLLTSLHKLSGGDVGLMKQIIDQSLDNEWKKFVA | -1.14
HMERDIATKHEVNRTVEAYSDIVKTLNLPSHKINLVEISFFNILKRSKPSPRENSILLGLAQKIKLHLEKK | -0.737
HMERLKYSQVVDLFKGEQVKSFVLDESNQLKMELQDGSTVSYKLRSFEQFYLDLSDTVKEQKESGIITDYD | -0.685
HMERPPHELLSDREYQTMVMIASGRTLTQIAEEMSLSPKTVSVYRARLLEKMKLKNNAELTHYALKHKLV | -1.89
HMERPSLDQVLAHAKALGIAPARFVAYADGRWGTGWRLSPHGRARAWEELDRHRNDPLGYRDKLDVALQSG | -0.179
HMESAQLIINVAGKVSNPGVYQLPQGSRVVDAIEAAGKQLKGVDISDINLARVLVDGEQILVGGV | 0.363
HMESAVDVFRSILKEKGVTEEEVRQVVAARGKYTLETPIDDYPNEFLYGYVIRYWDQIFDIIQQSREAK | -1.06
HMESEAKLGVAFNGKTRFDMTFPADADNKTIEEAVLADERAQKYLEGFQVAKVIIVPKRMVNIVLK | -0.189
HMESEIYKKIEKSRLLELAFTKSQKGDLTGAYDLYYQAFTKYDVIADNQNRYFEDFISLIRRKQQQD | -2.54
HMESGLPLPRFVSLGADEVNLRTGPGLRYPVAWVFVRKALPVEIVAEFEQWRRVRDFEGAEGWVHKAML | -0.163
HMESGSSKINQDILETFTRGKKSLSISDISRLSGHHRHTVARYLDNLVSSGKLEMRQHGQKKKYYLSDIQP | -0.314

Sequence | soluble fraction (log2)
HMESILDDFPGLGAVRRAALLEHFGDIDRLRAASAVEITEVDGFGDVLARELHDFLHRPKPDA | -0.515
HMESKKKTYTVKSGDTLVSILKREGVPQELIFKDYLGLFLELNPQISDINKLRVGQEIVLPVPG | 0.05
HMESLGEKIKNIRISNNLKQSELADILHISEKTISSWENNRTTPDLNMIYKISNYFKKSFYYLISDDYI | -0.908
HMESMIGSLRGRLLELFGDGEVLIEVGGVGYRVIVTPTTTVRLGDVGGDVFVHVHHHIREADQTLYGF | -0.48
HMESPSGGHRIALAFDQGTARAVDATYARLTGAGYEGRTKPWDAPWGQRYATVFDPDGNSVDLFAALE | -0.445
HMESRDRVRQASAAGYRFMSTMAGHEPGFEEASRALFAGDQTAFEARITAWPVDVQTHLKKILAEAFTT | -1.17
HMESRLQAAIALRKAGEHEQSREALKILADEPALRAQALLNIAWSFDNQGHERDAEGYYLAAIE | -0.381
HMESSKLQASIINYLERRPTQKFTAEELFKGLSLEKASVFNELVKELTSLERSHKVEITADDKFKIARPQ | -0.331
HMESSSQLGFELARLVESGNDEEARALVQAKELSEADERKWLYHLGNLLHAAGRPLQASAIWREVGT | 0.0141
HMESVQWSVFPSAKYVTIISFDPTTSGGSATAKFKVSDEARSKGFRFRIEAAIGEGIMRSEMYVIEE | 0.215
HMESWNRARILEKIRELHAQGVALNNASMRRLGYRGMMEAAARPQNFGSWEAAVRAAGIDYDRV | -0.275
HMETAVMPDVMKLDSTTAIQALKDKGFATIETYEVKSDRPAGVVVRQSETADSVVALSKEILLGVSNGADY | ≥ 1.04
HMETGFADTLRKFRKEADMTQEKLAEALGVTTGAVYKWENGRSTPEVRLLVEMADLFGTSVDALLDYKVR | -1.33
HMETGKLIKELRLKKGMTQEELADKTEVSSRTIQRIENGEVDPRAYTLQMIARALEVDYSLFME | -0.408
HMETIELSAPGGVRLDKLIADGTELSRSAAVKLIEQGNVLVNGSPAGKKDIPAAGAAVEITLPEPQ | 0.0135
HMETIGENIKTYRQKKGYTQEEVANRLHVTRQTISKWEKNYSIPDAEVLVKLADVLEVQTSQLLGV | -0.374
HMETIGKRVRAARQELGLTMKQLHEQTGLSTGNISDIENDRNTPSVSSLVALGRALRRSLDWLLTGEE | -0.959
HMETISEIWRLIDGLDEIYRVPLTMYYRSNRSVREIAETLGLSARTVETRIYRARRMIREKWSN | -2.06
HMETITDRLNRRSLELNVSQADIIRTTGAGRGTVSGWFSGANAPSAKYLESLAVALKTSTTWLLSGKD | -2.23
HMETKERDEQFLEMIRQNEGIIFKVASFYVDKEHPIGDLYQEVVLNLWKGYPSFRGESKYSTWIYRIALNT | 0.058
HMETKPTELMLEVHELRIGMFVHLDLGWMDHPFPLNRFKISTNSQIEQIKGLRLKQVKVMTALSDPTALS | -2.29
HMETKQYIVEAQDEGTRLDVYLTKELGQSRSYVQSLVKEGHVQVNGKTGKSNLKLSSSSEILVTIPEVQ | 0.067
HMETLKINTHLGTLNLKKRGKKGTWQINIYFKNIEGDNHYRQSTGTNQLELAKAKAMNMITTEYSNRLAGI | -1.67
